One may read the Kd as the concentration at which binding is half-saturated.

The source of these data is patent US20250218531A1 (ABSCI, published 2025).

Where a chain is given by its changes, count along the chain named. Where “and” joins values, the source holds several entries; their conditions need not be identical. Equal values may be shown once.

The chains are these.
B1: Trastuzumab HCDR3 variant ARWGYGGYYYFDY (Fab, V domains shown)
VH: EVQLVESGGGLVQPGGSLRLSCAASGFNIKDTYIHWVRQAPGKGLEWVARIYPTNGYTRYADSVKGRFTISADTSKNTAYLQMNSLRAEDTAVYYCARWGYGGYYYFDYWGQGTLVTVSS
VL: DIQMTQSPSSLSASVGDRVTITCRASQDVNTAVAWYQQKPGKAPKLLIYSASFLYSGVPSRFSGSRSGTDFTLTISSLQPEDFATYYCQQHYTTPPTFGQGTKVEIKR
B2: Trastuzumab HCDR3 variant ARYRGYVLYDFAY (Fab, V domains shown)
VH: B1 VH with W99Y, G100R, Y101G, G102Y, G103V, Y104L, Y106D, D108A
VL: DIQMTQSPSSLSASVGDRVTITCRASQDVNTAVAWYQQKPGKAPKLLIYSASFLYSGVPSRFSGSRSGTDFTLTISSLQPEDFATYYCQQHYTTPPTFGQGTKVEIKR
B3: Trastuzumab HCDR3 variant ARYYGYGGYWYDT (Fab, V domains shown)
VH: B1 VH with W99Y, G100Y, Y101G, G102Y, Y104G, Y106W, F107Y, Y109T
VL: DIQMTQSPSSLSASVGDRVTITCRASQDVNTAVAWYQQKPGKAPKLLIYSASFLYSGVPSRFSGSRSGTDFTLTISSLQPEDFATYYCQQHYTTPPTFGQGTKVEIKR
B4: Trastuzumab HCDR3 variant ARYWYGGYYYFDY (Fab, V domains shown)
VH: B1 VH with W99Y, G100W
VL: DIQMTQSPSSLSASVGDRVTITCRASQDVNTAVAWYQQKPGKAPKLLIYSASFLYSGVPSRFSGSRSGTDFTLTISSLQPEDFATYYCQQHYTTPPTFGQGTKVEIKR
B5: Trastuzumab HCDR3 variant ARWWGGGAYYFDY (Fab, V domains shown)
VH: B1 VH with G100W, Y101G, Y104A
VL: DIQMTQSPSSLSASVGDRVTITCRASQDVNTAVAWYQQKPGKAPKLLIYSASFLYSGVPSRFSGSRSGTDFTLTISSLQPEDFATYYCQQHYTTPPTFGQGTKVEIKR
B6: Trastuzumab HCDR3 variant ARWLGEGYYNFDY (Fab, V domains shown)
VH: B1 VH with G100L, Y101G, G102E, Y106N
VL: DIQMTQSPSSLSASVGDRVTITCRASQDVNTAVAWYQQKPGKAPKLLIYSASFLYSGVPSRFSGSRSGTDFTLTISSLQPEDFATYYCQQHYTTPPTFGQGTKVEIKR
B7: Trastuzumab HCDR3 variant ARYEAYGLYPFGY (Fab, V domains shown)
VH: B1 VH with W99Y, G100E, Y101A, G102Y, Y104L, Y106P, D108G
VL: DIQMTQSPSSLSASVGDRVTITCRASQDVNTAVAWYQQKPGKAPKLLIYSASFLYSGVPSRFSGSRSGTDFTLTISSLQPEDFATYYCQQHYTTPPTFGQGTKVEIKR
B8: Trastuzumab HCDR3 variant ARWGYYGNYYFDY (Fab, V domains shown)
VH: B1 VH with G102Y, Y104N
VL: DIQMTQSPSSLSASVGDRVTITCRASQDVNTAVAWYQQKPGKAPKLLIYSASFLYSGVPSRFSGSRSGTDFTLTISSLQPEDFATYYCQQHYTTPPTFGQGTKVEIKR
B9: Trastuzumab HCDR3 variant ARYWGLGGYYFDH (Fab, V domains shown)
VH: B1 VH with W99Y, G100W, Y101G, G102L, Y104G, Y109H
VL: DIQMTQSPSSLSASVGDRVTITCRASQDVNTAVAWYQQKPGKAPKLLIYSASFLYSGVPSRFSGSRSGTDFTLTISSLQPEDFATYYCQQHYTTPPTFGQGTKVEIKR
B10: Trastuzumab HCDR3 variant ARYGDGYYYYFAY (Fab, V domains shown)
VH: B1 VH with W99Y, Y101D, G103Y, D108A
VL: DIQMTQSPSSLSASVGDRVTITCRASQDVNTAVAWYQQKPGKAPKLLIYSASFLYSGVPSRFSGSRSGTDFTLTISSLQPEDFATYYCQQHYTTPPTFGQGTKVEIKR
B11: Trastuzumab HCDR3 variant ARYAHYGPYYFDF (Fab, V domains shown)
VH: B1 VH with W99Y, G100A, Y101H, G102Y, Y104P, Y109F
VL: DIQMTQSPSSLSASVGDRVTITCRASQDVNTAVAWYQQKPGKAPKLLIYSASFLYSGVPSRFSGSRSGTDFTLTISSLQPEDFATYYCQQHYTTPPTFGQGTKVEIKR
B12: Trastuzumab HCDR3 variant ARWPFYGPYNYDY (Fab, V domains shown)
VH: B1 VH with G100P, Y101F, G102Y, Y104P, Y106N, F107Y
VL: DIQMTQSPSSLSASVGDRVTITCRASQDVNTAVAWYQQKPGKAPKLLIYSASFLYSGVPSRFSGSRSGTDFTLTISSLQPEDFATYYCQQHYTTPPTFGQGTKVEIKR
B13: Trastuzumab HCDR3 variant ARWYGYGGYYFDY (Fab, V domains shown)
VH: B1 VH with G100Y, Y101G, G102Y, Y104G
VL: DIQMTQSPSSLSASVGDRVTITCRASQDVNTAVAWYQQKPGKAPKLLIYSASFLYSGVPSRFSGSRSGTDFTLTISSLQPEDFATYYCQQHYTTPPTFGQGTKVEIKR
B14: Trastuzumab HCDR3 variant ARWLGSGYYWFDY (Fab, V domains shown)
VH: B1 VH with G100L, Y101G, G102S, Y106W
VL: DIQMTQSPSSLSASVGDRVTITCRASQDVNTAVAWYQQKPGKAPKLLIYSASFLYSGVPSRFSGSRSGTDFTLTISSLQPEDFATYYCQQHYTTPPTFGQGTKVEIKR
B15: Trastuzumab HCDR3 variant ARWYYYGRYYFDY (Fab, V domains shown)
VH: B1 VH with G100Y, G102Y, Y104R
VL: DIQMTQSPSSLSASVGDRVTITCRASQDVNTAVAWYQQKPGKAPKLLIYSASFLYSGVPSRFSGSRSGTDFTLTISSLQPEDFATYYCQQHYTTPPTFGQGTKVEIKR
B16: Trastuzumab HCDR3 variant ARYFYDYYYYFDF (Fab, V domains shown)
VH: B1 VH with W99Y, G100F, G102D, G103Y, Y109F
VL: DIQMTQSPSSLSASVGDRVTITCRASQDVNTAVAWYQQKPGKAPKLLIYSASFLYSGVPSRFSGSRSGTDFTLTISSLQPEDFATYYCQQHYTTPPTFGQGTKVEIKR
B17: Trastuzumab HCDR3 variant ARWLAGYNYYFDV (Fab, V domains shown)
VH: B1 VH with G100L, Y101A, G103Y, Y104N, Y109V
VL: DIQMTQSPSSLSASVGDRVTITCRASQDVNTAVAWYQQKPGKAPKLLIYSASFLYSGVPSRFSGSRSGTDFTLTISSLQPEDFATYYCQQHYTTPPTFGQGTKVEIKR
B18: Trastuzumab HCDR3 variant ARYSGYGLYPYAY (Fab, V domains shown)
VH: B1 VH with W99Y, G100S, Y101G, G102Y, Y104L, Y106P, F107Y, D108A
VL: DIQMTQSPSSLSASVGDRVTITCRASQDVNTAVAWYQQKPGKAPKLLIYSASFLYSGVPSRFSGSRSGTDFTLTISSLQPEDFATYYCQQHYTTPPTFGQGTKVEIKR
B19: Trastuzumab HCDR3 variant ARYTYFGSFDFDY (Fab, V domains shown)
VH: B1 VH with W99Y, G100T, G102F, Y104S, Y105F, Y106D
VL: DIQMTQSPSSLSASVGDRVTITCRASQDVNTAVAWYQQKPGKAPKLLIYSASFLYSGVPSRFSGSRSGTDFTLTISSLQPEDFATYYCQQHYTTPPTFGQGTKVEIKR
B20: Trastuzumab HCDR3 variant ARYYYDYYYYFDY (Fab, V domains shown)
VH: B1 VH with W99Y, G100Y, G102D, G103Y
VL: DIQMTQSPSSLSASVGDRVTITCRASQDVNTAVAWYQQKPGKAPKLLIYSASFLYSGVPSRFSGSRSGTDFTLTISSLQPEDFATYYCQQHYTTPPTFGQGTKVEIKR
B21: Trastuzumab HCDR3 variant ARYSAYGLYDFAY (Fab, V domains shown)
VH: B1 VH with W99Y, G100S, Y101A, G102Y, Y104L, Y106D, D108A
VL: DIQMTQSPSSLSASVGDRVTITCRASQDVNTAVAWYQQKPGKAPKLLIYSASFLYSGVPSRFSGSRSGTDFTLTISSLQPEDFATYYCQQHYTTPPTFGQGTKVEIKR
B22: Trastuzumab HCDR3 variant ATYSTYYNYAFGI (Fab, V domains shown)
VH: B1 VH with R98T, W99Y, G100S, Y101T, G102Y, G103Y, Y104N, Y106A, D108G, Y109I
VL: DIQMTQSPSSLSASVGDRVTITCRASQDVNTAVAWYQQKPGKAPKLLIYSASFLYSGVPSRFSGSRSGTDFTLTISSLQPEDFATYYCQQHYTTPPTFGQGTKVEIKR
B23: Trastuzumab HCDR3 variant ARYYGYGGYYMDY (Fab, V domains shown)
VH: B1 VH with W99Y, G100Y, Y101G, G102Y, Y104G, F107M
VL: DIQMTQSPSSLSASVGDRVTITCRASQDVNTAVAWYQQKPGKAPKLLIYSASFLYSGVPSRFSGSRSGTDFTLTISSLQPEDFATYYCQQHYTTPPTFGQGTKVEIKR
B24: Trastuzumab HCDR3 variant ARWGYSGWYVMDY (Fab, V domains shown)
VH: B1 VH with G102S, Y104W, Y106V, F107M
VL: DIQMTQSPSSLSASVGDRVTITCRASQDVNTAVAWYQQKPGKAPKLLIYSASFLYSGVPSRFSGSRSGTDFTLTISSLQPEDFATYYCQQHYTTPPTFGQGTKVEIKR
B25: Trastuzumab HCDR3 variant ARYYGYGGYYFDY (Fab, V domains shown)
VH: B1 VH with W99Y, G100Y, Y101G, G102Y, Y104G
VL: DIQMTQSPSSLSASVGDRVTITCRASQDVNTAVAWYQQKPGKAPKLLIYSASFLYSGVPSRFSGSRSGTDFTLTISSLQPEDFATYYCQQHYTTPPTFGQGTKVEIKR
B26: Trastuzumab HCDR3 variant ARYGYYGPYYFDY (Fab, V domains shown)
VH: B1 VH with W99Y, G102Y, Y104P
VL: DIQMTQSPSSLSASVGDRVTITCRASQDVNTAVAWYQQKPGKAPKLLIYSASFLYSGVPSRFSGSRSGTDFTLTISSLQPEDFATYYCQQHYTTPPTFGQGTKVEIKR
B27: Trastuzumab HCDR3 variant ARYGVYPFYYFDY (Fab, V domains shown)
VH: B1 VH with W99Y, Y101V, G102Y, G103P, Y104F
VL: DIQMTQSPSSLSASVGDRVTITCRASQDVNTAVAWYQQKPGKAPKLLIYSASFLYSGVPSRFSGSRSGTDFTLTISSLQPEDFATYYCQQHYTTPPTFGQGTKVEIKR
B28: Trastuzumab HCDR3 variant ARYGSGYYYYFDY (Fab, V domains shown)
VH: B1 VH with W99Y, Y101S, G103Y
VL: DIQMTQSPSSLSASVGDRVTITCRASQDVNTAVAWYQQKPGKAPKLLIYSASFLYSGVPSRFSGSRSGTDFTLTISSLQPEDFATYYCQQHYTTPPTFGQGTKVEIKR
B29: Trastuzumab HCDR3 variant ARYDPYGFYHLDY (Fab, V domains shown)
VH: B1 VH with W99Y, G100D, Y101P, G102Y, Y104F, Y106H, F107L
VL: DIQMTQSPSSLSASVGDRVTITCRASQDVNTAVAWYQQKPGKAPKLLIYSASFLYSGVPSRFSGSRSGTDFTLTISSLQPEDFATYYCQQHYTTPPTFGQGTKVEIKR
B30: Trastuzumab HCDR3 variant ARYGSRYYYYFDY (Fab, V domains shown)
VH: B1 VH with W99Y, Y101S, G102R, G103Y
VL: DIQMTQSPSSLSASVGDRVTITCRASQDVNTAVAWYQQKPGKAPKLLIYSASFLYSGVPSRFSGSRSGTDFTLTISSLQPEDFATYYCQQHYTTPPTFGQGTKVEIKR
B31: Trastuzumab HCDR3 variant ARYYGYGYYYFHY (Fab, V domains shown)
VH: B1 VH with W99Y, G100Y, Y101G, G102Y, D108H
VL: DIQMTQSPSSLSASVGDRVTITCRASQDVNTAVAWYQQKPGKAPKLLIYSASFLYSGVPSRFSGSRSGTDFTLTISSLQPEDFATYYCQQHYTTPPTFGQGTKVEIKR
B32: Trastuzumab HCDR3 variant ARYGSSYYYYFDY (Fab, V domains shown)
VH: B1 VH with W99Y, Y101S, G102S, G103Y
VL: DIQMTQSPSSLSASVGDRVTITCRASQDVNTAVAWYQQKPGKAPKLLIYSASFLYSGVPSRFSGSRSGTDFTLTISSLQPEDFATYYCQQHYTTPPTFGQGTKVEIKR
B33: Trastuzumab HCDR3 variant ARYGGGGRYYFDY (Fab, V domains shown)
VH: B1 VH with W99Y, Y101G, Y104R
VL: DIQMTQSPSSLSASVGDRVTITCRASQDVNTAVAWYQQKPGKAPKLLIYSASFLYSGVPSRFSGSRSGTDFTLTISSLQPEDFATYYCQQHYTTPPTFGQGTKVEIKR
B34: Trastuzumab HCDR3 variant ARWRGDGGYYFDY (Fab, V domains shown)
VH: B1 VH with G100R, Y101G, G102D, Y104G
VL: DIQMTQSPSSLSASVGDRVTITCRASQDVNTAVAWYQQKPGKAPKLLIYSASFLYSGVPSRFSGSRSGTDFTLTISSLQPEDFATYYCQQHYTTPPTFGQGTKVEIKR
B35: Trastuzumab HCDR3 variant ARWPGYGSYYMDV (Fab, V domains shown)
VH: B1 VH with G100P, Y101G, G102Y, Y104S, F107M, Y109V
VL: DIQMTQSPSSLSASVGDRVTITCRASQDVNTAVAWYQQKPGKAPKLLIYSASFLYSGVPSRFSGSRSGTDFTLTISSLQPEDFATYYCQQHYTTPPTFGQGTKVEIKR
B36: Trastuzumab HCDR3 variant ARWYYYGGYYFDY (Fab, V domains shown)
VH: B1 VH with G100Y, G102Y, Y104G
VL: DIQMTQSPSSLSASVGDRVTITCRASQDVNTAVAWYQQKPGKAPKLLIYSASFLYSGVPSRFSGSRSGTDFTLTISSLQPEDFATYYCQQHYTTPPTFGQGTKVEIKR
B37: Trastuzumab HCDR3 variant ARWYYYGGYYFDV (Fab, V domains shown)
VH: B1 VH with G100Y, G102Y, Y104G, Y109V
VL: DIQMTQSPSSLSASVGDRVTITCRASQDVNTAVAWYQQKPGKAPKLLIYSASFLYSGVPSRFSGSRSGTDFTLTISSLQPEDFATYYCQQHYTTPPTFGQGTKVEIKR
B38: Trastuzumab HCDR3 variant ASYGLDGYYYFDV (Fab, V domains shown)
VH: B1 VH with R98S, W99Y, Y101L, G102D, Y109V
VL: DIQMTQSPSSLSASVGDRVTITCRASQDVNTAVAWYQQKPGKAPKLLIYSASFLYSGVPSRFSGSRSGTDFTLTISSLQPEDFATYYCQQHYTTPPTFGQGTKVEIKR
B39: Trastuzumab HCDR3 variant ARYRGVWYYDFDN (Fab, V domains shown)
VH: B1 VH with W99Y, G100R, Y101G, G102V, G103W, Y106D, Y109N
VL: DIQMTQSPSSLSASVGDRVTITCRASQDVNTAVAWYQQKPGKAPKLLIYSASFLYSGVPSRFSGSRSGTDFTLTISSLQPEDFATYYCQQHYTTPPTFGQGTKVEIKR
B40: Trastuzumab HCDR3 variant ARWTERGFYSFDI (Fab, V domains shown)
VH: B1 VH with G100T, Y101E, G102R, Y104F, Y106S, Y109I
VL: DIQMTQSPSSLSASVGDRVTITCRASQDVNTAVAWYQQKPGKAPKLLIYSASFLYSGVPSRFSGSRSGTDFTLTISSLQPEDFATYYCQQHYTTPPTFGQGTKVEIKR
B41: Trastuzumab HCDR3 variant ARYLQLGPYYFDY (Fab, V domains shown)
VH: B1 VH with W99Y, G100L, Y101Q, G102L, Y104P
VL: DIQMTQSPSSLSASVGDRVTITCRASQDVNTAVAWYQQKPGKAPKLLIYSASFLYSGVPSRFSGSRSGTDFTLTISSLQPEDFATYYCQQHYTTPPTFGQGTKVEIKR
B42: Trastuzumab HCDR3 variant ARYVGLGGYPLGY (Fab, V domains shown)
VH: B1 VH with W99Y, G100V, Y101G, G102L, Y104G, Y106P, F107L, D108G
VL: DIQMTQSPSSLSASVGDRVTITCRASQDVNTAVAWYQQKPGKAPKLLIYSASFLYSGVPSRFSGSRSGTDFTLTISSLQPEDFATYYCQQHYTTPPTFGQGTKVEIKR
B43: Trastuzumab HCDR3 variant ARWGYGYSYYFDV (Fab, V domains shown)
VH: B1 VH with G103Y, Y104S, Y109V
VL: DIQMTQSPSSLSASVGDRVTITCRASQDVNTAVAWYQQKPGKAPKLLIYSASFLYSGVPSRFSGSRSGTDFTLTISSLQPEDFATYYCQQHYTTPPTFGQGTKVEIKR
B44: Trastuzumab HCDR3 variant ARWLRALGYYMDY (Fab, V domains shown)
VH: B1 VH with G100L, Y101R, G102A, G103L, Y104G, F107M
VL: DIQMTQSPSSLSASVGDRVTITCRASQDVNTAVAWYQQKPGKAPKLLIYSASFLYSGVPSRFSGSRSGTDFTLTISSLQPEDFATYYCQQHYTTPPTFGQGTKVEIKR
B45: Trastuzumab HCDR3 variant ARWYGGGYYYMDY (Fab, V domains shown)
VH: B1 VH with G100Y, Y101G, F107M
VL: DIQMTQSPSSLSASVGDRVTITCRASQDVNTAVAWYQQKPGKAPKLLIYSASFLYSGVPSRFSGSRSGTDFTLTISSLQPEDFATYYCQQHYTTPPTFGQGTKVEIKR
B46: Trastuzumab HCDR3 variant ARWYYGYYYYFDV (Fab, V domains shown)
VH: B1 VH with G100Y, G103Y, Y109V
VL: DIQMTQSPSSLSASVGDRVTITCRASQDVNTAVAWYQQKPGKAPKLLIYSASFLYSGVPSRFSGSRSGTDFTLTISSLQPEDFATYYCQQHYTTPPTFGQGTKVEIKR
B47: Trastuzumab HCDR3 variant ARYYSYGQYAFDP (Fab, V domains shown)
VH: B1 VH with W99Y, G100Y, Y101S, G102Y, Y104Q, Y106A, Y109P
VL: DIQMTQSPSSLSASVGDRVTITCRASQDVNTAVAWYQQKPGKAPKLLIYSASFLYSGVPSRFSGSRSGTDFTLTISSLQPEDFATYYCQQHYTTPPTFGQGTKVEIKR

This experiment has as its target T1, HER2 (human epidermal growth factor receptor 2) (human, UniProt P04626 23-629).
T1 construct: also called Antigen: HER2
The experiment is described as follows: SPR.
As to B1, binding was put at a Kd of 19.1 nM and the “log(KD (M))” value is -7.72.
Consider B2, for which the affinity, expressed as Kd, was 23.1 nM and the “log(KD (M))” value is -7.64.
In the case of B3, binding was put at a Kd of 8.19 nM and the “log(KD (M))” value was -8.09.
The like results for B4 were, in that order, 19.7 nM and -7.71.
On to B5, for which the Kd worked out at 14.9 nM and the “log(KD (M))” value was -7.83.
Taken in the same sequence, the figures for B6 were 3.42 nM and -8.47.
B7: the Kd was determined as 3.39 nM and the “log(KD (M))” value was -8.47.
For the molecule B8, binding was put at a Kd of 13.4 nM and the “log(KD (M))” value is -7.87.
Taken in the same sequence, the figures for B9 were 16.5 nM and -7.78.
As for B10, binding was characterised by a dissociation constant (Kd) of 7.31 nM and the “log(KD (M))” value is -8.14.
As for B11, the affinity, expressed as Kd, was 19.8 nM and the “log(KD (M))” value was -7.7.
Taken in the same sequence, the figures for B12 were 2.64 nM and -8.58.
Taken in the same sequence, the figures for B13 were 7.43 nM and -8.13.
For the molecule B14, the affinity, expressed as Kd, was 10.9 nM and the “log(KD (M))” value was -7.96.
Turning to B15, binding was characterised by a dissociation constant (Kd) of 11 nM and the “log(KD (M))” value was -7.96.
Taken in the same sequence, the figures for B16 were 7.11 nM and -8.15.
As for B17, the Kd turned out to be 15.7 nM and the “log(KD (M))” value is -7.8.
With B18, the Kd was 17.4 nM and the “log(KD (M))” value was -7.76.
In the case of B19, binding was characterised by a dissociation constant (Kd) of 15.8 nM and the “log(KD (M))” value was -7.8.
In the case of B20, the Kd was determined as 8.44 nM and the “log(KD (M))” value is -8.07.
Taken in the same sequence, the figures for B21 were 25.5 nM and -7.59.
B22: the equilibrium dissociation constant (Kd) is 22.6 nM and the “log(KD (M))” value is -7.65.
As to B23, the Kd is 9.91 nM and the “log(KD (M))” value is -8.
Take B24: the Kd is 6.93 nM and the “log(KD (M))” value was -8.16.
The like results for B25 were, in that order, 8.05 nM and -8.09.
Turning to B26, binding was characterised by a dissociation constant (Kd) of 14.3 nM and the “log(KD (M))” value was -7.84.
The like results for B27 were, in that order, 27 nM and -7.57.
As for B28, the Kd stood at 15.7 nM and the “log(KD (M))” value is -7.8.
For B29, the Kd was determined as 24.2 nM and the “log(KD (M))” value was -7.62.
Taken in the same sequence, the figures for B30 were 15.7 nM and -7.8.
For B31, binding was put at a Kd of 20.2 nM and the “log(KD (M))” value was -7.7.
Turning to B32, the Kd was determined as 13.9 nM and the “log(KD (M))” value was -7.86.
Consider B33, for which the Kd is 19.6 nM and the “log(KD (M))” value is -7.71.
In the case of B34, binding was put at a Kd of 13.1 nM and the “log(KD (M))” value was -7.88.
In the case of B35, the Kd came out at 4.83 nM and the “log(KD (M))” value was -8.32.
With B36, the Kd was found to be 8.29 nM and the “log(KD (M))” value is -8.08.
The like results for B37 were, in that order, 12.5 nM and -7.9.
Taken in the same sequence, the figures for B38 were 19.3 nM and -7.71.
In the case of B39, the dissociation constant Kd came out at 14.5 nM and the “log(KD (M))” value was -7.84.
Take B40: the dissociation constant (Kd) is 9.28 nM and the “log(KD (M))” value is -8.03.
Taken in the same sequence, the figures for B41 were 14.7 nM and -7.83.
Take B42: the affinity, expressed as Kd, was 13.2 nM and the “log(KD (M))” value is -7.88.
With B43, the Kd was 21.1 nM and the “log(KD (M))” value was -7.68.
For B44, the Kd was 15.9 nM and 15.8 nM; the “log(KD (M))” value is -7.8.
On to B45, for which binding was put at a Kd of 11.8 nM and the “log(KD (M))” value is -7.93.
Taken in the same sequence, the figures for B46 were 7.04 nM and -8.15.
In the case of B47, the Kd is 19.4 nM and the “log(KD (M))” value is -7.71.
